In patent publication US20190085030A1 one finds Peptide bound in fraction 12 [%] data, which are given here for five molecules.

Non-standard residues stand in square brackets, D forms with d. No end group written: not given here.

For the experiment, the target named is A-beta1-42 (UniProt P05067). In words: iodixanol density gradient centrifugation of A-beta1-42 with FITC-labelled peptide; dye in fraction 12.
Sequence of A-beta1-42 (P05067 672-713 limits assumed): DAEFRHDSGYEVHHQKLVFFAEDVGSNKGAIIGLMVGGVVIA
Consider [dP][dT][dL][dH][dT][dH][dN][dR][dR][dR][dR][dR] (also: FITC label, site not given here) [RD2 (rational D3) (SEQ ID NO: 2)], for which the Peptide bound in fraction 12 [%] was determined as 20%. The same measure for [dR][dP][dR][dT][dR][dL][dH][dT][dH][dR][dN][dR] (also: FITC label, site not given here) [D3 (SEQ ID NO: 11)]: 4%; for [dR][dP][dR][dT][dR][dL][dR][dN][dR] (also: FITC label, site not given here) [D3Δhth (D3 with deletion hth) (SEQ ID NO: 1)]: 2%.

Take [dR][dP][dR][dT][dR][dL] [NT-D3 (D3-N-Terminus) (SEQ ID NO: 6)]: the Peptide bound in fraction 12 [%] was found to be 0%. The molecule [dR][dR][dP][dT][dL][dR][dH][dT][dH][dN][dR][dR] (also: FITC label, site not given here) [RD3 (rational D3) (SEQ ID NO: 4)] displayed a Peptide bound in fraction 12 [%] of 4%.
